Publication PMC3607351 (Structure (London, England : 1993), 2012)

T1: Extracellular cytokine-binding domain of mouse RANK (all four CRDs, residues 1-198) (mouse, UniProt O35305 31-198)
T1 sequence (looked up): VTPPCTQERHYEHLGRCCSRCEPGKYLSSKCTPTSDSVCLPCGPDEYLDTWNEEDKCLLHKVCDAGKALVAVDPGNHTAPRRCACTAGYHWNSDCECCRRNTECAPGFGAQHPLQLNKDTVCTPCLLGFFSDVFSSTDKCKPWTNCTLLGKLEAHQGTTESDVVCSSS

B1: Recombinant mouse RANKL (residues 162-316), receptor-binding ectodomain, trimer (ligand, UniProt O35235-1 162-316, looked up)
chain: QPFAHLTINAASIPSGSHKVTLSSWYHDRGWAKISNMTLSNGKLRVNQDGFYYLYANICFRHHETSGSVPTDYLQLMVYVVKTSIKIPSSHNLMKGGSTKNWSGNSEFHFYSINVGGFFKLRAGEEISIQVSNPSLLDPDQDATYFGAFKVQDID

What was measured:
[1] = target: Recombinant mouse RANKL (residues 162-316), receptor-binding ectodomain, trimer (mouse) (UniProt O35235); experiment: SPR
[2] = target: T1, Extracellular cytokine-binding domain …; experiment: SPR
crystal structure = target: the molecule itself; experiment: crystal structure

Molecule | fold decrease in affinity against wild-type OPG CRDs [1] [fold] | fold slower on-rate than wild-type OPG CRDs [1] [fold] | Kd [2] [nM] | stoichiometry N (crystal structure)
Mouse OPG F96A CRD fragment (CRDs 1 through 4) (from UniProt O08712 22-191) (domain or fragment) | 60 | 30 | – | –
B1 | – | – | 2090 | 3
